Laboratory results from patent US20260234233A1 (PETMEDIX, published 2026).

T1: Human NT-4 (human, UniProt P34130 81-210)
T1 construct: mature; also called hNT-4
T1 sequence (looked up): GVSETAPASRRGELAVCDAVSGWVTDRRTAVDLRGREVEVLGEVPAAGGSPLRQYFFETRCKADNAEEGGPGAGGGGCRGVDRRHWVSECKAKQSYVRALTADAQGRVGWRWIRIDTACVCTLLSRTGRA

T2: Human BDNF (human, UniProt P23560 129-247)
T2 construct: mature; also called hBDNF
T2 sequence (looked up): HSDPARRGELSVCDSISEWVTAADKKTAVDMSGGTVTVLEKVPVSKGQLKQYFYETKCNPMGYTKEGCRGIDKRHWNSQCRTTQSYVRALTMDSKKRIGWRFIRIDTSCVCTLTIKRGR

T3: Human NT-3 (human, UniProt P20783 139-257)
T3 construct: mature; also called hNT-3
T3 sequence (looked up): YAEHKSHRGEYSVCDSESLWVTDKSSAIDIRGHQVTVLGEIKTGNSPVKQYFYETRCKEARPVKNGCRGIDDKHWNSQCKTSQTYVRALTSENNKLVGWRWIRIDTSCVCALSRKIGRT


Tests used:
[1] = target: T4, Human proNGF (human, UniProt P01138 19-241); test: SPR, Biacore 8K, binder captured on Protein A chip, ligand as analyte
T4 construct: This is the precursor form with the pro-peptide; also called h-proNGF; the pro-peptide

[2] = target: Human NGF (human) (UniProt P01138); test: cell-based or functional assay
[3] = target: NGF (species not stated) (Homo sapiens (Human)) (UniProt P01138); test: cell-based or functional assay
[4] = target: T1, Human NT-4; test: SPR, Biacore 8K, binder captured on Protein A chip, ligand as analyte
[5] = target: T2, Human BDNF; test: as above
[6] = target: T3, Human NT-3; test: as above
[7] = target: T4, Human proNGF; test: as above; remark: listed apart in the source
Protocol: (§1) Binding affinity of fusion proteins to human and rat NGF was assessed using Biacore 8K (Cytiva). Briefly, Protein A Sensor Chip (Cytiva) was docked into Biacore 8K, equilibrated for 30′ at RT and then Running Buffer (10 mM HEPES pH7.4 150 mM NaCl 3 mM EDTA and 0.005% Tween20) was applied to the SPR chip surface.
(§2) PetML119var was diluted into running buffer at 6 nM concentration. These were immobilised using 90 sec association at 10 uL/min as capturing step, followed by injection of running buffer to remove any unbound product.

[8] = target: T5, Human NGF (human, UniProt P01138 122-241); test: cell-based or functional assay
[9] = target: T5, Human NGF; test: SPR, Biacore 8K, binder captured on Protein A chip, ligand as analyte
Protocol: as §1, §2

Chain of Human NGF (human) (P01138 122-241): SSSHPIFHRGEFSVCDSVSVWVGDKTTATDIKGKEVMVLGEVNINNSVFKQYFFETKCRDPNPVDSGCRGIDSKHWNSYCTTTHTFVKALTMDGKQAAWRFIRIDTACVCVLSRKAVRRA
T5 sequence (P01138 122-241): as above
T4 sequence (P01138 19-241): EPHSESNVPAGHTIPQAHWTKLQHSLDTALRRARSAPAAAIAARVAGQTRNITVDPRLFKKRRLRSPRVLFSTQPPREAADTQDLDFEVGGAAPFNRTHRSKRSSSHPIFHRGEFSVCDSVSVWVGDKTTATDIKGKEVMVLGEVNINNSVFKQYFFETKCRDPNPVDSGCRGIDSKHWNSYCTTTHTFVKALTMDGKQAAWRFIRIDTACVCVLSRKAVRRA

Binder	Kd [4] [nM]	Kd [5] [nM]	Kd [6] [nM]	further results
Bedinvetmab (antibody, V domains shown) VH: EVQLVESGGDLVKPGGSLRLSCVASGFTFSSHGMHWVRQSPGKGLQWVAVINSGGSSTYYTDAVKGRFTISRDNAKNTVYLQMNSLRAEDTAMYYCAKESVGGWEQLVGPHFDYWGQGTLVIVSS VL: QSVLTQPTSVSGSLGQRVTISCSGSTNNIGILGASWYQLFPGKAPKLLVYGNGNRPSGVPDRFSGADSGDSVTLTITGLQAEDEADYYCQSFDTTLGAHVFGGGTHLTVL	–	–	–	Kd [1]: 0.0018 nM; IC50 (nM), inhibition of NGF-dependent TF-1 cell proliferation [2]: 0.89 nM; IC Max, inhibition of NGF-dependent TF-1 cell proliferation [2]: 100; ICMAX (%), inhibition of NGF-dependent TF-1 cell proliferation [2]: 96.8%; Bottom (%), best-fit, PathHunter TrkA activation assay with NGF at 2 nM [3]: 5.35%; IC50 (nM), PathHunter TrkA activation assay with NGF at 2 nM [3]: 4.24 nM; Top (%), best-fit, PathHunter TrkA activation assay with NGF at 2 nM [3]: 123%; TrkA inhibition, PathHunter TrkA activation assay with NGF at 2 nM [3]: 100%
PetML119 (Canine p75NTR ECD-canine IgGB wt Fc protein fusion) (Fc fusion, Made in CHO cells; also called PetML119wt; p75NTR-Fc) KEACPTGLYTHSGECCKACNLGEGVAQPCGANQTVCEPCLDSVTFSDVVSATEPCKPCTECVGLQSMSAPCVEADDAVCRCAYGYYQDETTGRCEACRVCEAGSGLVFSCQDRQNTVCEECPDGTYSDEANHVDPCLPCTVCEDTERQLRECTRWADAECEEIPGGGGRENGRVPRPPDCPKCPAPEMLGGPSVFIFPPKPKDTLLIARTPEVTCVVVDLDPEDPEVQISWFVDGKQMQTAKTQPREEQFNGTYRVVSVLPIGHQDWLKGKQFTCKVNNKALPSPIERTISKARGQAHQPSVYVLPPSREELSKNTVSLTCLIKDFFPPDIDVEWQSNGQQEPESKYRTTPPQLDEDGSYFLYSKLSVDKSRWQRGDTFICAVMHEALHNHYTQKSLSHSPGK	7.2	14.4	4.9	Kd [1]: 0.0019 nM; fold higher affinity for proNGF than for mature NGF [7]: 171 ×
PetML119-S109Y (Canine p75NTR ECD S109Y-canine IgGB wt Fc) (Fc fusion, Signal peptide left out as for PetML119; If the listing carries them, the end of the range is 426) KEACPTGLYTHSGECCKACNLGEGVAQPCGANQTVCEPCLDSVTFSDVVSATEPCKPCTECVGLQSMSAPCVEADDAVCRCAYGYYQDETTGRCEACRVCEAGSGLVFYCQDRQNTVCEECPDGTYSDEANHVDPCLPCTVCEDTERQLRECTRWADAECEEIPGRGGGGRENGRVPRPPDCPKCPAPEMLGGPSVFIFPPKPKDTLLIARTPEVTCVVVDLDPEDPEVQISWFVDGKQMQTAKTQPREEQFNGTYRVVSVLPIGHQDWLKGKQFTCKVNNKALPSPIERTISKARGQAHQPSVYVLPPSREELSKNTVSLTCLIKDFFPPDIDVEWQSNGQQEPESKYRTTPPQLDEDGSYFLYSKLSVDKSRWQRGDTFICAVMHEALHNHYTQKSLSHSPGK	12	16.7	8.3	IC50 (nM), inhibition of NGF-dependent TF-1 cell proliferation [8]: 0.17 nM; ICMAX (%), inhibition of NGF-dependent TF-1 cell proliferation [8]: 88.5%
PetML119-S109H (Canine p75NTR ECD S109H-canine IgGB wt Fc) (Fc fusion) KEACPTGLYTHSGECCKACNLGEGVAQPCGANQTVCEPCLDSVTFSDVVSATEPCKPCTECVGLQSMSAPCVEADDAVCRCAYGYYQDETTGRCEACRVCEAGSGLVFHCQDRQNTVCEECPDGTYSDEANHVDPCLPCTVCEDTERQLRECTRWADAECEEIPGRGGGGRENGRVPRPPDCPKCPAPEMLGGPSVFIFPPKPKDTLLIARTPEVTCVVVDLDPEDPEVQISWFVDGKQMQTAKTQPREEQFNGTYRVVSVLPIGHQDWLKGKQFTCKVNNKALPSPIERTISKARGQAHQPSVYVLPPSREELSKNTVSLTCLIKDFFPPDIDVEWQSNGQQEPESKYRTTPPQLDEDGSYFLYSKLSVDKSRWQRGDTFICAVMHEALHNHYTQKSLSHSPGK	9.1	16.2	7.9	IC50 (nM), inhibition of NGF-dependent TF-1 cell proliferation [8]: 2.15 nM; ICMAX (%), inhibition of NGF-dependent TF-1 cell proliferation [8]: 93.5%
PetML119-V133R (Canine p75NTR ECD V133R-canine IgGB wt Fc) (Fc fusion, Signal peptide left out as for PetML119) KEACPTGLYTHSGECCKACNLGEGVAQPCGANQTVCEPCLDSVTFSDVVSATEPCKPCTECVGLQSMSAPCVEADDAVCRCAYGYYQDETTGRCEACRVCEAGSGLVFSCQDRQNTVCEECPDGTYSDEANHRDPCLPCTVCEDTERQLRECTRWADAECEEIPGRGGGGRENGRVPRPPDCPKCPAPEMLGGPSVFIFPPKPKDTLLIARTPEVTCVVVDLDPEDPEVQISWFVDGKQMQTAKTQPREEQFNGTYRVVSVLPIGHQDWLKGKQFTCKVNNKALPSPIERTISKARGQAHQPSVYVLPPSREELSKNTVSLTCLIKDFFPPDIDVEWQSNGQQEPESKYRTTPPQLDEDGSYFLYSKLSVDKSRWQRGDTFICAVMHEALHNHYTQKSLSHSPGK	8.3	42.3	7.2	–
PetML119-E75T (Canine p75NTR ECD E75T-canine IgGB wt Fc) (Fc fusion, The signal peptide (first 19 residues) is left out as for PetML119) KEACPTGLYTHSGECCKACNLGEGVAQPCGANQTVCEPCLDSVTFSDVVSATEPCKPCTECVGLQSMSAPCVEATDAVCRCAYGYYQDETTGRCEACRVCEAGSGLVFSCQDRQNTVCEECPDGTYSDEANHVDPCLPCTVCEDTERQLRECTRWADAECEEIPGRGGGGRENGRVPRPPDCPKCPAPEMLGGPSVFIFPPKPKDTLLIARTPEVTCVVVDLDPEDPEVQISWFVDGKQMQTAKTQPREEQFNGTYRVVSVLPIGHQDWLKGKQFTCKVNNKALPSPIERTISKARGQAHQPSVYVLPPSREELSKNTVSLTCLIKDFFPPDIDVEWQSNGQQEPESKYRTTPPQLDEDGSYFLYSKLSVDKSRWQRGDTFICAVMHEALHNHYTQKSLSHSPGK	98.5	15.4	5.1	fold reduced affinity relative to PetML119wt [9]: 40 ×
PetML119-D134L (Canine p75NTR ECD D134L-canine IgGB wt Fc) (Fc fusion, Signal peptide left out as for PetML119; also called D134L mutant) KEACPTGLYTHSGECCKACNLGEGVAQPCGANQTVCEPCLDSVTFSDVVSATEPCKPCTECVGLQSMSAPCVEADDAVCRCAYGYYQDETTGRCEACRVCEAGSGLVFSCQDRQNTVCEECPDGTYSDEANHVLPCLPCTVCEDTERQLRECTRWADAECEEIPGRGGGGRENGRVPRPPDCPKCPAPEMLGGPSVFIFPPKPKDTLLIARTPEVTCVVVDLDPEDPEVQISWFVDGKQMQTAKTQPREEQFNGTYRVVSVLPIGHQDWLKGKQFTCKVNNKALPSPIERTISKARGQAHQPSVYVLPPSREELSKNTVSLTCLIKDFFPPDIDVEWQSNGQQEPESKYRTTPPQLDEDGSYFLYSKLSVDKSRWQRGDTFICAVMHEALHNHYTQKSLSHSPGK	101	26.7	8.3	fold reduced affinity relative to PetML119wt [9]: 20 ×
